The text below walks through data of publication PMC9018708.

In assay [1] the target is Heparin Binding EGF Like Growth Factor, endogenous on ARN8 cells (human (endogenous in ARN8)) (UniProt Q99075).
For assay [2], the target named is human Heparin Binding EGF Like Growth Factor, overexpressed on ARN8 HBEGFKO cells (human) (UniProt Q99075).
Assay [3] concerns the target Heparin Binding EGF Like Growth Factor (DT receptor) on Vero cells (African green monkey (endogenous in Vero)).
For assay [4] the target is unchanged. The source holds these as a separate data set.

For “DT(ATR), DT chimera with the R domain of Albireti Toxin”, in assay [1], the sensitivity (EC50), dose titration on WT ARN8 cells (HBEGFKO cells: 245 nM) worked out at 169 nM. Further, the sensitivity (EC50), dose titration on +HBEGF ARN8 cells in assay [2] turned out to be 608 nM. In assay [3], the EC50 of toxicity toward Vero cells (dose titration) worked out at 12 nM.
With “DT(PTR), DT chimera with the R domain of Peptono Toxin”, the sensitivity (EC50), dose titration on WT ARN8 cells (HBEGFKO cells: 55 nM) in assay [1] came to 25 nM. Also, in assay [2], the sensitivity (EC50), dose titration on +HBEGF ARN8 cells is 50 nM. This substance displayed an EC50 of toxicity toward Vero cells (dose titration) in assay [3] of 7 nM.
“Diphtheria toxin (from UniProt P00588 33-567) (natural protein)” gave a DT sensitivity (EC50), dose titration on WT ARN8 cells (HBEGFKO cells: N/A) in assay [1] of 0.026 nM. In addition, the DT sensitivity (EC50), dose titration on +HBEGF ARN8 cells in assay [2] turned out to be 0.00043 nM. The substance also gave an EC50 of inhibition of protein synthesis (nLucP assay) in Vero cells, overnight (18 h) incubation in assay [4] of 0.00015 nM.
